Antibody concentration of highest luciferase transduction of SKBR3 cells data for 1 substance are collected here from patent US20260061072A1.

The target in the test is Human Leukocyte Antigen (HLA) on the surface of human cells (human). Nature of the test: cell-based or functional assay.

The substance “anti-HLA monoclonal antibody clone W6/32 (mouse, ThermoFisher)” gave an antibody concentration of highest luciferase transduction of SKBR3 cells of 10 µg/mL.
